Measured values taken from paper PMC5303546 (Biochemical Pharmacology, 2017).

Experiments:
[1] = target: parathyroid hormone 2 receptor (PTH2), wild type, human (human) (UniProt P49190); assay: radioligand binding; whole-cell competition: HEK-293 cells expressing the receptor in poly-D-lysine coated 24-well plates; 50 pM ^125I-rPTH(1–34); unlabelled ligand 10 μM–10 pM; room temperature, 2 h; Whole Cell Binding Buffer pH 7.7 with 5% horse serum and 0.5% foetal calf serum; IC50 from a single site model with the Hill co-efficient constrained to 1
parathyroid hormone 2 receptor (PTH2), wild type, human (human), sequence (P49190 25-550): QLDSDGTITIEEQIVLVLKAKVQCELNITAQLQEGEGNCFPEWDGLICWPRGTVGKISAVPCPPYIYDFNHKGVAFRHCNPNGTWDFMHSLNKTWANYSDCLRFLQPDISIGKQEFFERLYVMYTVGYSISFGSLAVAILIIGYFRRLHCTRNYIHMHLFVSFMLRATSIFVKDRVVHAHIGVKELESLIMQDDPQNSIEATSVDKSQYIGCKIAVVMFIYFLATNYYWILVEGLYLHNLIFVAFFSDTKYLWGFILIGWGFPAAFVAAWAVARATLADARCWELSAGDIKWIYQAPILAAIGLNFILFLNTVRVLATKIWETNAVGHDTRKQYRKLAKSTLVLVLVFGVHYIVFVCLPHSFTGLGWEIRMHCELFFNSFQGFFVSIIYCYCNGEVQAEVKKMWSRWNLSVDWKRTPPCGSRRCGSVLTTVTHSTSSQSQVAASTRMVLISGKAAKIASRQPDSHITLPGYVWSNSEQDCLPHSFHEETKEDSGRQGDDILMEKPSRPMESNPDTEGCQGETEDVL

[2] = target: PTH2 receptor mutant Tyr-318-Ile (human) (UniProt P49190); assay: as above
PTH2 receptor mutant Tyr-318-Ile (human), sequence (P49190 25-550 Y318I): as the sequence (P49190 25-550) above, with Y294I counted along it

[3] = target: PTH2 receptor mutant Tyr-318-Phe (human) (UniProt P49190); assay: as above
PTH2 receptor mutant Tyr-318-Phe (human), sequence (P49190 25-550 Y318F): as the sequence (P49190 25-550) above, with Y294F counted along it

[4] = target: parathyroid hormone 2 receptor (PTH2), wild type, human (human) (UniProt P49190)
[5] = target: PTH2 receptor mutant Tyr-318-Ile (human) (UniProt P49190)
[6] = target: PTH2 receptor mutant Tyr-318-Phe (human) (UniProt P49190)
PTH2 = conditions: cited from earlier work
Source text: Despite the success of the chimeric and single residue-swap studies of PTH1 and PTH2 described above, [14], [15], [20], which identified PTH/PTHrP binding and selectivity determinants at PTH1 and PTH2, the nature of the TIP39 selection has not been explored to the same degree.

PTH2R (Y318I) = assay: LANCE cAMP screen, mutant PTH2; conditions: 1 μM PTH(1–34), 10,000 cells/well, 30 min
Experimental: (§1) These various pcDNA3 constructs were used to express the wild type human PTH1 and PTH2 receptors, and mutant PTH2 receptors, in Human Embryonic Kidney (HEK)-293 cells.
(§2) The HEK-293 cells were cultured in Dulbecco’s Modified Eagle’s Medium (DMEM, from Sigma, Poole, UK) supplemented with 10% foetal calf serum (Lonza Wokinham Ltd., Wokingham, UK) and containing 2 mM L-glutamine, 100 U/ml penicillin and 100 μg/ml streptomycin (Invitrogen, Paisley, UK). Cells were transfected with pcDNA3 containing the cDNA encoding the receptors, using the SuperFect® Transfection Reagent (Qiagen Ltd., Crawley, UK.) and stable clones were selected with G418 antibiotic (Invitrogen, Paisley, UK) as follows. Cells were seeded into a 25 cm^2 flask containing 10 ml of media and transfected when they reached 50–80% confluence. To do this, 20 μl of SuperFect® was mixed with a DNA solution consisting of 5 μg plasmid DNA in 150 μl DMEM. The DNA was incubated with the reagent for 10 min at room temperature after which 1 ml of media was then added and mixed gently. […]
(§3) The LANCE cAMP kit (PerkinElmer Life and Analytical Sciences) was used alongside the manufacturer’s instructions with some minor adaptations as described. […] The acceptor fluorescence signal was read at 665 nm on a ViewLux instrument (Perkin Elmer).

PTH1 = assay: LANCE cAMP screen, wild type PTH1; format: cell-based, human; conditions: 1 μM PTH(1–34); HEK-293 stable cells, 10,000 cells/well, 30 min stimulation
Experimental: (§4) The full-length cDNA of human PTH1 and PTH2 (gift from GlaxoSmithKline) in pcDNA3 (Invitrogen, Paisley, UK) were used to express wild type receptors as described previously [14]. […] These various pcDNA3 constructs were used to express the wild type human PTH1 and PTH2 receptors, and mutant PTH2 receptors, in Human Embryonic Kidney (HEK)-293 cells.
(§5) The HEK-293 cells were cultured in Dulbecco’s Modified Eagle’s Medium (DMEM, from Sigma, Poole, UK) supplemented with 10% foetal calf serum (Lonza Wokinham Ltd., Wokingham, UK) and containing 2 mM L-glutamine, 100 U/ml penicillin and 100 μg/ml streptomycin (Invitrogen, Paisley, UK). Cells were transfected with pcDNA3 containing the cDNA encoding the receptors, using the SuperFect® Transfection Reagent (Qiagen Ltd., Crawley, UK.) and stable clones were selected with G418 antibiotic (Invitrogen, Paisley, UK) as follows. Cells were seeded into a 25 cm^2 flask containing 10 ml of media and transfected when they reached 50–80% confluence. To do this, 20 μl of SuperFect® was mixed with a DNA solution consisting of 5 μg plasmid DNA in 150 μl DMEM. […]
as §3

PTH2R (I244L) = assay: LANCE cAMP screen, mutant PTH2; conditions: 1 μM PTH(1–34), 10,000 cells/well, 30 min
Experimental: as §4, §5, §3

PTH2R (T192V) = assay: LANCE cAMP screen, mutant PTH2; conditions: 1 μM PTH(1–34), 10,000 cells/well, 30 min
Experimental: as §4, §5, §3

PTH2R (C397Y) = assay: LANCE cAMP screen, mutant PTH2; conditions: 1 μM PTH(1–34), 10,000 cells/well, 30 min
Experimental: as §1, §2, §3

PTH2R (M242F) = assay: LANCE cAMP screen, mutant PTH2; conditions: 1 μM PTH(1–34), 10,000 cells/well, 30 min
Experimental: as §4, §5, §3

PTH2R (V380 M) = assay: LANCE cAMP screen, mutant PTH2; format: cell-based, human; conditions: 1 μM PTH(1–34), 10,000 cells/well, 30 min
Experimental: as §1, §2, §3

PTH2R (V241T) = assay: LANCE cAMP screen, mutant PTH2; conditions: 1 μM PTH(1–34), 10,000 cells/well, 30 min
Experimental: as §4, §5, §3

PTH2R (G327V) = assay: LANCE cAMP screen, mutant PTH2; conditions: 1 μM PTH(1–34), 10,000 cells/well, 30 min
Experimental: as §1, §2, §3

PTH2R (A293V) = assay: LANCE cAMP screen, mutant PTH2; conditions: 1 μM PTH(1–34), 10,000 cells/well, 30 min
Experimental: as §4, §5, §3

PTH2R (A297V) = assay: LANCE cAMP screen, mutant PTH2; conditions: 1 μM PTH(1–34), 10,000 cells/well, 30 min
Experimental: as §1, §2, §3

PTH2R (A295V) = assay: LANCE cAMP screen, mutant PTH2; conditions: 1 μM PTH(1–34), 10,000 cells/well, 30 min
Experimental: as §4, §5, §3

PTH2R (C381A) = assay: LANCE cAMP screen, mutant PTH2; conditions: 1 μM PTH(1–34), 10,000 cells/well, 30 min
Experimental: as §1, §2, §3

PTH2R (V296S) = assay: LANCE cAMP screen, mutant PTH2; conditions: 1 μM PTH(1–34), 10,000 cells/well, 30 min
Experimental: as §1, §2, §3

PTH2R (A320V) = assay: LANCE cAMP screen, mutant PTH2; conditions: 1 μM PTH(1–34), 10,000 cells/well, 30 min
Experimental: as §1, §2, §3

PTH2R (L399M) = assay: LANCE cAMP screen, mutant PTH2; conditions: 1 μM PTH(1–34), 10,000 cells/well, 30 min
Experimental: as §1, §2, §3

PTH2R (L382T) = assay: LANCE cAMP screen, mutant PTH2; conditions: 1 μM PTH(1–34), 10,000 cells/well, 30 min
Experimental: as §1, §2, §3

PTH2R (V146 M) = assay: LANCE cAMP screen, mutant PTH2; format: cell-based, human; conditions: 1 μM PTH(1–34), 10,000 cells/well, 30 min
Experimental: as §4, §5, §3

| Compound | IC50 [1] [µM] | pIC50 [1] | IC50 [2] [µM] | pIC50 [2] | IC50 [3] [µM] | pIC50 [3] | cAMP accumulation (LANCE), EC50; 2500 cells/well, 10 min [4] [µM] | cAMP accumulation (LANCE), pEC50; 2500 cells/well, 10 min [4] | cAMP accumulation (LANCE), EC50; 2500 cells/well, 10 min [5] [µM] | cAMP accumulation (LANCE), pEC50; 2500 cells/well, 10 min [5] | cAMP accumulation (LANCE), EC50; 2500 cells/well, 10 min [6] [µM] | cAMP accumulation (LANCE), pEC50; 2500 cells/well, 10 min [6] | further results |
| --- | --- | --- | --- | --- | --- | --- | --- | --- | --- | --- | --- | --- | --- |
| TIP (4–39) (peptide) | 0.158 | 6.8 | 1.48 | 5.83 | 0.603 | 6.22 | 0.00029 | 9.54 | 0.0891 | 7.05 | 0.0132 | 7.88 | – |
| TIP (7–39): TIP39 truncated by the first 6 residues, literature peptide (ref 21) (DAAFRERARLLAALERRHWLNSYMHKLLVLDAP; Tuberoinfundibular peptide of 39 residues; UniProt Q96A98 68-100, looked up, fragment) | – | – | – | – | – | – | – | – | – | – | – | – | efficacy at PTH2 (PTH2): no efficacy |
| TIP (2–39) (peptide) | 0.0589 | 7.23 | 1.48 | 5.83 | 0.417 | 6.38 | 0.00012 | 9.92 | 0.0417 | 7.38 | 0.00479 | 8.32 | – |
| TIP (6–39) (peptide) | 1.05 | 5.98 | 8.71 | 5.06 | 4.27 | 5.37 | 0.123 | 6.91 | – | – | > 1 | < 6 | – |
| TIP (3–39) (peptide) | 0.105 | 6.98 | 1.26 | 5.9 | 0.479 | 6.32 | 0.00022 | 9.66 | 0.0501 | 7.3 | 0.00955 | 8.02 | – |
| TIP (5–39) (peptide) | 0.871 | 6.06 | 7.24 | 5.14 | 3.24 | 5.49 | 0.017 | 7.77 | > 1 | < 6 | 0.912 | 6.04 | – |
| CC[C@H](C)[C@H](NC(=O)[C@H](CCC(=O)O)NC(=O)[C@H](CO)NC(=O)[C@@H](NC(=O)[C@@H](N)CO)C(C)C)C(=O)N[C@@H](CCC(N)=O)C(=O)N[C@@H](CC(C)C)C(=O)N[C@@H](CCSC)C(=O)N[C@@H](Cc1c[nH]cn1)C(=O)N[C@@H](CC(N)=O)C(=O)N[C@@H](CC(C)C)C(=O)NCC(=O)N[C@@H](CCCCN)C(=O)N[C@@H](Cc1c[nH]cn1)C(=O)N[C@@H](CC(C)C)C(=O)N[C@@H](CC(N)=O)C(=O)N[C@@H](CO)C(=O)N[C@@H](CCSC)C(=O)N[C@@H](CCC(=O)O)C(=O)N[C@@H](CCCNC(=N)N)C(=O)N[C@H](C(=O)N[C@@H](CCC(=O)O)C(=O)N[C@@H](Cc1c[nH]c2ccccc12)C(=O)N[C@@H](CC(C)C)C(=O)N[C@@H](CCCNC(=N)N)C(=O)N[C@@H](CCCCN)C(=O)N[C@@H](CCCCN)C(=O)N[C@@H](CC(C)C)C(=O)N[C@@H](CCC(N)=O)C(=O)N[C@@H](CC(=O)O)C(=O)N[C@H](C(=O)N[C@@H](Cc1c[nH]cn1)C(=O)N[C@@H](CC(N)=O)C(=O)N[C@@H](Cc1ccccc1)C(=O)O)C(C)C)C(C)C [PTH(1–34)] | – | – | – | – | – | – | – | – | – | – | – | – | % maximum PTH(1–34) response (PTH2R (Y318I)): 99 ± 1%; % maximum PTH(1–34) response (PTH1): 99 ± 2%; % maximum PTH(1–34) response (PTH2R (I244L)): 100 ± 3%; % maximum PTH(1–34) response (PTH2R (T192V)): 102 ± 2%; % maximum PTH(1–34) response (PTH2R (C397Y)): 100 ± 2%; % maximum PTH(1–34) response (PTH2R (M242F)): 98 ± 2%; % maximum PTH(1–34) response (PTH2R (V380 M)): 102 ± 1%; % maximum PTH(1–34) response (PTH2R (V241T)): 100 ± 1%; % maximum PTH(1–34) response (PTH2R (G327V)): 100 ± 2%; % maximum PTH(1–34) response (PTH2R (A293V)): 99 ± 2%; % maximum PTH(1–34) response (PTH2R (A297V)): 100 ± 2%; % maximum PTH(1–34) response (PTH2R (A295V)): 99 ± 2%; % maximum PTH(1–34) response (PTH2R (C381A)): 100 ± 2%; % maximum PTH(1–34) response (PTH2R (V296S)): 101 ± 2%; % maximum PTH(1–34) response (PTH2R (A320V)): 100 ± 1%; % maximum PTH(1–34) response (PTH2R (L399M)): 101 ± 1%; % maximum PTH(1–34) response (PTH2R (L382T)): 102 ± 2%; % maximum PTH(1–34) response (PTH2R (V146 M)): 102 ± 1% |
